Assay results: article PMC4159269

Key:
Assay in all cases: co-IP; HEK293T co-transfected with FLAG-Siah construct and HA-PHD3; lysate on anti-FLAG M2 agarose beads, 4°C 1 hour, washed with NP40 lysis buffer; blot with anti-HA; densitometry as percentage of WT Siah2 SBD for Fig. 7c
[1] = target: SBD[S1]^NT[S2]^CT (SBD chimera with Siah1 N-terminus and Siah2 C-terminus) (human)
[2] = target: [S1-6Mut]^NT[S2]^CT (6Mut = E17S/P21H/A26P/P57S/Q62A/F98H) (human)
[3] = target: [S1-8Mut]^NT[S2]^CT (8Mut = N3S/E17S/P21H/A26P/F34Y/P57S/Q62A/F98H) (human)

Q: With “HA-PHD3 (prolyl hydroxylase 3) (from UniProt Q9H6Z9 1-239) (natural protein)” as the substance, how does the binding as percentage of the binding of WT Siah2 SBD to PHD3 (densitometry) [1] read?
A: 4 percent

Q: And the binding as percentage of the binding of WT Siah2 SBD to PHD3 (densitometry) [2]?
A: 29 percent

Q: What about the binding as percentage of the binding of WT Siah2 SBD to PHD3 (densitometry) [3] of the same substance?
A: 48 percent
